# Laboratory results: patent US20210253692A1 (GALAPAGOS, published 2021)
# B1: MAB#1 (antibody, human IgG1, lambda, V domains shown)
# VH: EVQLLESGGGLVQPGGSLRLSCAASGFTVSDYAMHWVRQAPGKGLEWVSYIGGVGEGTQYAESVKGRFTISRDNSKNTLYLQMNSLRAEDTAVYYCARGFAIRYYGFDYWGQGTLVTVSS
# VL: SYELTQPPSVSVSPGQTASITCSGDKLGDKYAYWYQQKPGQSPVLVIYQDSKRPSGIPERFSGSNSGNTATLTISGTQAEDEADYYCQVFTFPLVTTVFGGGTKLTVLG
# notes: also called IL-17C antibody; anti-IL-17C antibody
# Biological target: the molecule itself
# Experiment: dynamic light scattering in phosphate buffered saline; self-interaction of the antibody
protein,measurement,value
B1,kD (diffusion interaction parameter),-23.6 mL/g
